Patent US7413903B2, “Methods of regulating differentiation in stem cells” (ES Cell International PTE Ltd., priority 2002, dated 2008)

Test system: hES cells
Assay: GCTM-2 quantification (alkaline phosphatase-coupled secondary antibody, OD 405 nm)
Format: cell-based, human
Text: hES-3 cells plated with MEF, were fixed in ethanol and immunostained with GCTM-2 and then with an alkaline phosphatase-coupled secondary antibody (Dako). The activity of alkaline phosphatase was detected by adding a solution of 4-nitrophenyl phosphate (Roche, Mannheim, Germany), followed by reading the optical density (OD) at 405 nm. In order to validate the technique as a relevant indicator of the proportion of GCTM-2 positive cells, standard curves were done with the teratocarcinoma cell line GCT27C4, known to express GCTM-2.
Cells were fixed in 100% ethanol and immunostained with GCTM-2 followed by alkaline phosphatase-coupled secondary antibodies (Dako). Alkaline phosphatase activity was detected by adding a solution of 4-nitrophenyl phosphate (Roche), and the concentration of the reaction product was determined by reading the optical density (OD) at 405 nm. In order to validate the technique as an accurate indicator of the proportion of GCTM-2 positive cells, standard curves were carried out with the embryonal carcinoma cell line GCT27C4, known to express GCTM-2 ^20.

B1: PDGF-BB: Human platelet-derived growth factor isoform BB (protein, UniProt P01127 82-190, looked up)
Platelet-derived growth …: SLGSLTIAEPAMIAECKTRTEVFEISRRLIDRTNANFLVWPPCVEVQRCSGCCNNRNVQCRPTQVQLRPVQVRKIEIVRKKPIFKKATVTLEDHLACKCETVAAARPVT
GCTM2 levels, PDGF isoform added with S1P (Example 1, isoform added with S1P): 182.0±26.0 % of control
GCTM2 expression, PDGF isoform with S1P (Example 2, 2 weeks, isoform 20 ng/ml together with S1P): 294.3±77.3 % of control
